From patent US20250298032A1 (INSTITUTE FOR RESEARCH IN BIOMEDICINE, published 2025)
Positions count from the first letter of the chain named.

Experiments:
[1] = target: SARS-CoV-2 Spike (S) protein (SARS-CoV-2, UniProt P0DTC2 14-1208); assay: ELISA on coated Spike protein (FIG. 2E)
Protocol: Plates were washed 4 times with washing buffer (PBS+0.05% Tween-20 [Sigma-Aldrich]) and incubated with 50 μl per well of a 50 nM biotinylated peptide solution in PBS for 1 h at room temperature. After washing 4 times with washing buffer, plates were incubated with 200 μl per well of blocking buffer (PBS+2% BSA+0.05% Tween-20) for 2 h at room temperature. Plates were then washed 4 times with washing buffer, and serial dilutions of monoclonal antibodies or plasma were added in PBS +0.05% Tween-20 and incubated for 1 h at room temperature. […] Monoclonal antibodies were tested at 5 μg/ml starting concentration followed by 11 threefold serial dilutions. Plates were subsequently washed 4 times with washing buffer and incubated with anti-human IgG secondary antibody conjugated to horseradish peroxidase (HRP) (GE Healthcare, NA933) at a 1:5000 dilution in PBS+0.05% Tween-20. […] The developing reaction was stopped with 50 μl per well of a 1 M H₂SO₄ solution, and absorbance was measured at 450 nm with an ELISA microplate reader (BioTek) with Gen5 software. […] The Area Under the Curve (AUC) was obtained from two independent experiments and plotted with GraphPad Prism.

[2] = target: T1, CCL11 N-loop peptide (human, biotin-Ahx at the N-terminus; amidated at the C-terminus); assay: ELISA on biotinylated N-loop peptide (FIG. 2D)
T1 peptide: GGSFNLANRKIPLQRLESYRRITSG
Protocol: (§1) To evaluate the antibodies' binding to chemokine peptides, 96-well plates (ThermoFisher, 442404) were coated with 50 μl per well of a 2 μg/ml Neutravidin (Life Technologies, 31000) solution in PBS, overnight at room temperature. Plates were washed 4 times with washing buffer (PBS+0.05% Tween-20 [Sigma-Aldrich]) and incubated with 50 μl per well of a 50 nM biotinylated peptide solution in PBS for 1 h at room temperature. After washing 4 times with washing buffer, plates were incubated with 200 μl per well of blocking buffer (PBS+2% BSA+0.05% Tween-20) for 2 h at room temperature. Plates were then washed 4 times with washing buffer, and serial dilutions of monoclonal antibodies or plasma were added in PBS +0.05% Tween-20 and incubated for 1 h at room temperature. To screen for the presence of anti-chemokine IgGs, plasma samples were assayed (unless otherwise stated) at 1:50 starting dilution followed by 3 fourfold serial dilutions (1:200, 1:800, 1:3200). Monoclonal antibodies were tested at 5 μg/ml starting concentration followed by 11 threefold serial dilutions. Plates were subsequently washed 4 times with washing buffer and incubated with anti-human IgG secondary antibody conjugated to horseradish peroxidase (HRP) (GE Healthcare, NA933) at a 1:5000 dilution in PBS+0.05% Tween-20. Finally, after washing 4 times with washing buffer, plates were developed by the addition of 50 μl per well of the HRP substrate TMB (ThermoFisher, 34021) for 9 min. The developing reaction was stopped with 50 μl per well of a 1 M H₂SO₄ solution, and absorbance was measured at 450 nm with an ELISA microplate reader (BioTek) with Gen5 software. A positive control (broadly reactive plasma from donor CLM70) and a negative control (uninfected participant) samples were included in each experiment. The Area Under the Curve (AUC) was obtained from two independent experiments and plotted with GraphPad Prism.

[3] = target: T2, CCL7 N-loop peptide (human, biotin-Ahx at the N-terminus; amidated at the C-terminus); assay: ELISA on biotinylated N-loop peptide (FIG. 2D)
T2 peptide: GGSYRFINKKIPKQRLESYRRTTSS
Protocol: as §1

[4] = target: T3, CCL13 N-loop peptide (human, biotin-Ahx at the N-terminus; amidated at the C-terminus); assay: ELISA on biotinylated N-loop peptide (FIG. 2D)
T3 peptide: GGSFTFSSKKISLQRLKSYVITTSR
Protocol: as §1

[5] = target: T4, CCL2 N-loop peptide (human, biotin-Ahx at the N-terminus; amidated at the C-terminus); assay: ELISA on biotinylated N-loop peptide (FIG. 2D)
T4 peptide: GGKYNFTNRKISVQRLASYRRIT
Protocol: as §1

[6] = target: T5, CCL8 N-loop peptide (human, biotin-Ahx at the N-terminus; amidated at the C-terminus); assay: ELISA, biotinylated CCL8 N-loop peptide on neutravidin plate, anti-human IgG-HRP, OD450 nm
T5 construct: Synthetic peptide (GenScript), captured on Neutravidin-coated ELISA plates
T5 peptide: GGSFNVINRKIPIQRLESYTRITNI
Protocol: as §1

[7] = target: T3, CCL13 N-loop peptide; assay: ELISA, biotinylated CCL13 N-loop peptide on neutravidin plate, OD450 nm
Protocol: as §1, with “Plates were subsequently washed 4 times with washing buffer and incubated with anti-human IgG secondary antibody conjugated to horseradish peroxidase (HRP) (GE Healthcare, NA933) at a 1:5000 dilution in PBS+0.05% Tween-20. Finally, after washing 4 times with washing buffer, plates were developed by the addition of 50 μl per well of the HRP substrate TMB (ThermoFisher, 34021) for 9 min.” left out, “A positive control (broadly reactive plasma from donor CLM70) and a negative control (uninfected participant) samples were included in each experiment. The Area Under the Curve (AUC) was obtained from two independent experiments and plotted with GraphPad Prism.” left out

[8] = target: T1, CCL11 N-loop peptide; assay: ELISA, biotinylated CCL11 N-loop peptide on neutravidin plate, OD450 nm
Protocol: as §1, with “Plates were subsequently washed 4 times with washing buffer and incubated with anti-human IgG secondary antibody conjugated to horseradish peroxidase (HRP) (GE Healthcare, NA933) at a 1:5000 dilution in PBS+0.05% Tween-20. Finally, after washing 4 times with washing buffer, plates were developed by the addition of 50 μl per well of the HRP substrate TMB (ThermoFisher, 34021) for 9 min.” left out, “A positive control (broadly reactive plasma from donor CLM70) and a negative control (uninfected participant) samples were included in each experiment. The Area Under the Curve (AUC) was obtained from two independent experiments and plotted with GraphPad Prism.” left out

[9] = target: T2, CCL7 N-loop peptide; assay: ELISA, biotinylated CCL7 N-loop peptide on neutravidin plate, OD450 nm
Protocol: as §1, with “Plates were subsequently washed 4 times with washing buffer and incubated with anti-human IgG secondary antibody conjugated to horseradish peroxidase (HRP) (GE Healthcare, NA933) at a 1:5000 dilution in PBS+0.05% Tween-20. Finally, after washing 4 times with washing buffer, plates were developed by the addition of 50 μl per well of the HRP substrate TMB (ThermoFisher, 34021) for 9 min.” left out, “A positive control (broadly reactive plasma from donor CLM70) and a negative control (uninfected participant) samples were included in each experiment. The Area Under the Curve (AUC) was obtained from two independent experiments and plotted with GraphPad Prism.” left out

[10] = target: T4, CCL2 N-loop peptide; assay: ELISA, biotinylated CCL2 N-loop peptide on neutravidin plate, OD450 nm
Protocol: as §1, with “Plates were subsequently washed 4 times with washing buffer and incubated with anti-human IgG secondary antibody conjugated to horseradish peroxidase (HRP) (GE Healthcare, NA933) at a 1:5000 dilution in PBS+0.05% Tween-20. Finally, after washing 4 times with washing buffer, plates were developed by the addition of 50 μl per well of the HRP substrate TMB (ThermoFisher, 34021) for 9 min.” left out, “A positive control (broadly reactive plasma from donor CLM70) and a negative control (uninfected participant) samples were included in each experiment. The Area Under the Curve (AUC) was obtained from two independent experiments and plotted with GraphPad Prism.” left out

[11] = target: T6, CCL20 N-loop peptide (human, biotin-Ahx at the N-terminus; amidated at the C-terminus); assay: ELISA, biotinylated CCL20 N-loop peptide on neutravidin plate, anti-human IgG-HRP, OD450 nm
T6 construct: Synthetic peptide, captured on Neutravidin-coated ELISA plates
T6 peptide: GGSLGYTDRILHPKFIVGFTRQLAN
Protocol: as §1, with “Plates were subsequently washed 4 times with washing buffer and incubated with anti-human IgG secondary antibody conjugated to horseradish peroxidase (HRP) (GE Healthcare, NA933) at a 1:5000 dilution in PBS+0.05% Tween-20. Finally, after washing 4 times with washing buffer, plates were developed by the addition of 50 μl per well of the HRP substrate TMB (ThermoFisher, 34021) for 9 min.” left out, “A positive control (broadly reactive plasma from donor CLM70) and a negative control (uninfected participant) samples were included in each experiment. The Area Under the Curve (AUC) was obtained from two independent experiments and plotted with GraphPad Prism.” left out

[12] = target: T7, CXCL16 N-loop peptide (human, biotin-Ahx at the N-terminus; amidated at the C-terminus); assay: ELISA, biotinylated CXCL16 N-loop peptide on neutravidin plate, anti-human IgG-HRP, OD450 nm
T7 construct: Synthetic peptide, captured on Neutravidin-coated ELISA plates
T7 peptide: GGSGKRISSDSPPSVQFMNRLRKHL
Protocol: as §1

[13] = target: T8, CXCL13 N-loop peptide (human, biotin-Ahx at the N-terminus; amidated at the C-terminus); assay: ELISA, biotinylated CXCL13 N-loop peptide on neutravidin plate, anti-human IgG-HRP, OD450 nm
T8 construct: Synthetic peptide, captured on Neutravidin-coated ELISA plates
T8 peptide: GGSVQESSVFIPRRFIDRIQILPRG
Protocol: as §1

B1: aCCL8.004 (antibody, human IgG1, V domains shown)
VH: QVQLQESGPGLVKPAETLSLTCIVSGDSVSSPSYFWGWIRQPPGKGLEWIGATWFNGDTYYNPSLQSRVSISMDMSLNRIYLSLNSVTAADTAVYFCATEHCFDEICSPASDSWGQGTLVTVSS
VL: DIVMTQSPDSLAVSLGERATISCMSSQSVFFSSNNENCLAWFQQKPGQPPKLLIYWASTRASGVPDRFSGSGSGTDFTLTISSLQAEDVAVYYCQQYLKAPRTFGQGTKVEIK
notes: also called VH4-39/VK4-1 antibody; anti-CCL8 antibody
[1]
  binding result: no binding
[2]
  binding result: no binding (tested: 5 µg/ml starting concentration)
[3]
  binding result: no binding (tested: 5 µg/ml starting concentration)
[4]
  binding result: no binding (tested: 5 µg/ml starting concentration)
[5]
  binding result: no binding (tested: 5 µg/ml starting concentration)
[6]
  EC50 (read off the curve): ~10 ng/mL

B2: aCCL8.005 (antibody, human IgG1, V domains shown)
VH: QLQLQESGPGLVKPSETLSLTCTVSGDSVSSSFYFWGWVRQPPGKGLEWIGGTYYTGDTYHNPSLKSRLTISMDTSKNQFSLRLSSVTAADTAVYYCATEFCINGICRPASDSWGQGTLVTVSS
VL: B1 VL with S22N, M24K, F30L, F31L, E36K, K45R, A61E, V91I, L98Y
notes: as for B1
[7]
  binding result: no binding (tested: 5000 ng/ml)
[8]
  binding result: no binding (tested: 5000 ng/ml)
[9]
  binding result: no binding (tested: 5000 ng/ml)
[6]
  EC50 (read off the curve): ~10 ng/mL
[10]
  binding result: no binding (tested: 5000 ng/ml)

B3: aCCL20.001 (antibody, V domains shown)
VH: QVQLVQSGAEVKKPGASVKISCKASGYTFTNHYMHWVRQAPGVGLEWMGIVNPSGGNTSYARNFQGRIIMTRDMSTRTIYMELGSLRSEDTAVYYCARDGSHYDDDGGYYGDAFDIWGQGTMVTVSS
VL: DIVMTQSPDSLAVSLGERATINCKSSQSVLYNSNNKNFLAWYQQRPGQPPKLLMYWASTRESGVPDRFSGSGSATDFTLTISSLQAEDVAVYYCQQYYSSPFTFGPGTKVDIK
notes: also called anti-CCL20 N-loop antibody
[11]
  EC50 (read off the curve): ~40 ng/mL

B4: aCXCL16.001 (antibody, human IgG1, V domains shown)
VH: EVQLVESGGGLVKPGESLTLSCVASGYPFANAWMSWVRQAPGKGLEWVGRIKTKSEGETTDYAPLVRGRFTISRDDSKTTVFLQMNSLKTEDTGMYYCTTVFFWGRGTLVTVSS
VL: SYELTQPPSVSVSPGQTARITCSGDALSQQYLFWHQQRPGQAPKVVISKDTERPSGIPERFSGSISGTTGTLTISGVQTEDEADYYCHSTDISDSYWVFGGGTKLTVL
notes: also called anti-CXCL16 N-loop antibody
[12]
  EC50 (read off the curve): ~100 ng/mL

B5: aCXCL13.003 (antibody, V domains shown)
VH: QVQLQEWGAGLLKPSETLSLTCAVYGGSFSGYYWSWIRQPPGKGLEWIGEINHSGSTNYNPSLKSRVTISVDTSKNQFSLKLSSVTAADTAVYYCARAGRSYGDYGAFDIWGQGTMVTVSS
VL: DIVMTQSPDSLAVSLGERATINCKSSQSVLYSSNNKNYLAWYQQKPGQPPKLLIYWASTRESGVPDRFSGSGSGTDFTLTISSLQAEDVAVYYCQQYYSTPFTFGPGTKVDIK
notes: also called anti-CXCL13 N-loop antibody
[13]
  binding result: binds

B6: aCXCL16.003 (antibody, human IgG1, V domains shown)
VH: EVQLVQSGAEVKKPGESLKISCKGSGYSFTSYWIGWVRQMPGKGLEWMGIIYPGDSDTRYSPSFQGQVTISADKSISTAYLQWSSLKASDTAMYYCARLHGDLYYFDYWGQGTLVTVSS
VL: QSVLTQEASVSGTVGQKVTLSCTGNSNNVGSYAVGWYQQISHGAPKTVMFGNSLPSGIPDRFSGSKSGTTASLTISGLQPEDEADYYCSTWDYSLSAQVFGGGTKLTVL
notes: as for B4
[12]
  EC50 (read off the curve): ~200 ng/mL
